US20180245121A1

Tests used:
[1] = molecular target: FKBP-GDH(155-454AA) (Acinetobacter calcoaceticus) (UniProt P62942); test: cell-based or functional assay
[2] = molecular target: FKBP-GDH(155-454AA) (Acinetobacter calcoaceticus) (UniProt P62942); test: self-reconstitution of split GDH fragments without ligand; method not described (GDH activity assay implied)

UniProt P62942, sequence (P62942 2-108, tags or fused parts left off): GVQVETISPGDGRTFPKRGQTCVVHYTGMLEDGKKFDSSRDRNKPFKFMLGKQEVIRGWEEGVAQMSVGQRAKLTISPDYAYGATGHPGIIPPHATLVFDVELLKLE

GDH(1-153AA)-FRB (from UniProt P42345 2021-2113)
GDH activity; observed rates on rapamycin titration fitted to a quadratic equation [1]: 11 nM | Kd [2]: 50 to 100 nM
